Here are results for two substances from article PMC3231237.

The target in assay [1] is Case16. Briefly: SEC-MALS; sensor at 4 mg/mL, Ca2+-saturated (5 mM CaCl2 added, 1 h); Superdex 200, 50 mM Tris-HCl, 300 mM NaCl, pH 7.4, 1 mM CaCl2; monomer to dimer. Background: SEC sorts molecules by how far they enter the pores of the column.
Assay [2] concerns the target Case16. Briefly: SEC-MALS; sensor at 16 mg/mL, Ca2+-saturated (5 mM CaCl2 added, 1 h); Superdex 200, 50 mM Tris-HCl, 300 mM NaCl, pH 7.4, 1 mM CaCl2; monomer to dimer.
For assay [3], the target named is Case12. Briefly: SEC-MALS; sensor at 4 mg/mL, Ca2+-saturated (5 mM CaCl2 added, 1 h); Superdex 200, 50 mM Tris-HCl, 300 mM NaCl, pH 7.4, 1 mM CaCl2; monomer to dimer.
In assay [4] the target is Case12. Nature of the assay: SEC-MALS; sensor at 16 mg/mL, Ca2+-saturated (5 mM CaCl2 added, 1 h); Superdex 200, 50 mM Tris-HCl, 300 mM NaCl, pH 7.4, 1 mM CaCl2; monomer to dimer.

Take Case16: the percent dimer in assay [1] worked out at 2%. In assay [2], the percent dimer is 26% and the stoichiometry N is 2.

In assay [3], Case12 showed a percent dimer of 3%. In assay [4], this substance registered a percent dimer of 22% and a stoichiometry N of 2.

One may read the stoichiometry N as a count of units in the complex or per binding partner.
